Experimental data reported in US11254722B2, “Recombinant proteins and uses thereof” (ACADEMIA SINICA, priority 2017, dated 2022).

Experiments:
[1] = biological target: T1, nrgECD (amino acids Ser2-Lys246 of neuregulin beta 1) (Homo sapiens, UniProt Q02297); assay: Biacore binding to nrgECD; details: immobilized nrgECD
T1 construct: Ser2-Lys246 of neuregulin beta 1; purchased R&D Sciences or SinoBiologicals
T1 sequence (Q02297 2-246 isoform Q02297-6): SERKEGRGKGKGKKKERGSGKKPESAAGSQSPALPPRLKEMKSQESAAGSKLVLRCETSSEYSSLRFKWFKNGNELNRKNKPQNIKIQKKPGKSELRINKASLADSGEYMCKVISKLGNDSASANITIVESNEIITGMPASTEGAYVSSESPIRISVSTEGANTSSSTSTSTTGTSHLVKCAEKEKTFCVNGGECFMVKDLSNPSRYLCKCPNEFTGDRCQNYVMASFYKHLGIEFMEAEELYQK
Procedure: (§1) Biacore binding was performed at David Myszka's laboratory at the University of Utah or at the Genomic Research Center at Academia Sinica. Surfaces of binding protein chimera were made via chemical immobilization on a CM4 chip using standard amine coupling chemistry. […] Excess surface carboxyl activated sites on all four flow cells was blocked using the doubly positively charged species ethylenediamine. Binding experiments (but not immobilizations) in HBS-P (10 mM HEPES pH 7.4, 150 mM NaCl, 0.05% P20), The HBS-P was supplemented with BSA at 0.2 mg/mL, or HBS-P was supplemented with 500 mM NaCl (650 mM NaCl, final concentration). Analytes were also reconstituted in the corresponding buffer. All experiments were performed at 25° C. 1/150 dilutions of phosphoric acid were used to regenerate IGFBP3-Fc surfaces and a sequence of 3 M MgCl2 followed by 5 M GuCl was used to regenerate surfaces immobilized with growth factor. Dissociation constants reported below used immobilized binding protein unless noted. Differences between binding constants may be expected between growth factor immobilization and chimera immobilization.
(§2) In this example, erbB4 domain 1 was attached to the N-terminus of the recombinant IGFBP3-Fc or the recombinant IGFBP3-v1v2-Fc.

[2] = biological target: T2, nrgEGF (amino acids Thr176-Lys246 of neuregulin-beta 1) (Homo sapiens, UniProt Q02297); assay: Biacore binding to nrgEGF
T2 construct: Thr176-Lys246 of neuregulin-beta 1; purchased R&D Sciences or SinoBiologicals
T2 sequence (Q02297 176-246 isoform Q02297-6): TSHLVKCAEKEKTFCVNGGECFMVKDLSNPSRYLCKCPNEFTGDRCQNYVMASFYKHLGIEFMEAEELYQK
Procedure: as §1, §2

EGF = biological target: T3, EGF (Homo sapiens, UniProt P01133); assay: Binding to EGF
T3 construct: purchased R&D Sciences or SinoBiologicals
Source text: Table 3 lists the correlation between the IGFBP3 growth factor binding as determined by the inhibition of the proliferation by 56662. The observed inhibitory effects may derive from the growth factor sequestration, and/or IGFBP3 independent effects.

hep3B cells = assay: hep3B proliferation assay; assay type: cell-based, human; details: hep3B
Summary of the method: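 Cells seeded at 1,000 to 6,000 per well in DMEM/F12 with 0.2% BSA and 10 ug/ml transferrin. Inhibitors added 16-20 h after plating; IGF-1 or other growth factors at plating or 16-20 h later. After 3 to 4 days, growth read by Alamar blue fluorescence at 544/590 nm after 4 to 6 h.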

HUVEC cells = assay: HUVEC proliferation assay; assay type: cell-based; details: HGF-induced, HUVEC
Summary of the method: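 HUVEC, 5,000 per well, plated on poly-L-lysine in M199 with 1% FBS and HEPES. After 3 to 4 days of culture, growth read by Alamar blue incubation for 4 to 6 hours, fluorescence (RFU) at 544/590 nm.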

VEGF = biological target: T4, VEGF (Homo sapiens, UniProt P15692); assay: In vitro proliferation stimulated by VEGF (Table 8); assay type: cell-based
T4 construct: purchased R&D Systems
T4 sequence (P15692 27-191 isoform P15692-4): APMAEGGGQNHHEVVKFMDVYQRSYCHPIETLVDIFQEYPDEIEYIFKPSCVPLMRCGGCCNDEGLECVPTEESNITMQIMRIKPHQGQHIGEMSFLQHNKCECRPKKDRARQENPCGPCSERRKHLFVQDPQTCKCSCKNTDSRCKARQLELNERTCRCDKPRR
Procedure: (§3) For the proliferation assay, cells except for HUVEC were seeded at a density of 1,000 to 6,000 in 96 wells in an assay buffer of DMEM/F12 plus 0.2% BSA and 10 ug/ml transferrin. Chemical inhibitors were added after 16-20 hours after plating; IGF-1 or other growth factors or test chimeras in assay buffer were added at the time of plating or 16-20 hours after plating. 5,000 HUVEC ells were plated in poly-L-lysine coated 96 wells in M199 with 1%/FBS and HEPES. After 3 to 4 days of culture, growth was determined by incubating cells with Alamar blue for 4 to 6 hours and then the fluorescence (RFU) at 544/590 nm was read. For long term proliferation assays, cells were plated in the growth media with 5% or 10% FBS at densities of 500 to 10,000 cells per cm^2 growth area and grown for 7 to 21 days. Inhibitors and effectors were added 1-4 days after plating. Cells were exposed to cisplatin or gemcitabine for two days. Medium was renewed twice weekly. At completion, cells were fixed and then stained with Giemsa.
(§4) The BP3-VEGF-trap-fc (including the IGFBP3 domains, the VEGFR1 domain 2 and VEGFR2 domain 3 (VEGF-trap (22)), and human immunoglobulin Fc region) broadened the binding to include VEGF-A, VEGF-B, and placental growth factor (PIGF). This BP3-VEGF-trap chimera could inhibit the proliferation stimulated by IGF-1, IGF-2, neuregulin, PDGF-BB, HGF, bFGF, VEGF-A, and PIGF (see, Table 8).

PIGF = biological target: T5, PIGF (Homo sapiens, UniProt P49763); assay: In vitro proliferation stimulated by PIGF (Table 8); assay type: cell-based
T5 construct: purchased R&D Sciences or SinoBiologicals
T5 sequence (P49763 19-221): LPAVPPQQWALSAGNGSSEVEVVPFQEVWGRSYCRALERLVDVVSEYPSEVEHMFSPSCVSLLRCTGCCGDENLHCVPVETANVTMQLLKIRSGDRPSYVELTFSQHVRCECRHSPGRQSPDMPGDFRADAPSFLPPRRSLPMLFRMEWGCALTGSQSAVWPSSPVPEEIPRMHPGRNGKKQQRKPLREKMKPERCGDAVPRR
Procedure: as §3, §4

T3 sequence (P01133 971-1023 limits assumed): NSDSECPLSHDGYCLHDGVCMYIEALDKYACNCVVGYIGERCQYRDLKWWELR

Substance: 56662: IGFBP3-Fc, SEQ ID NO: 7; unmodified IGFBP3 fused with the IgG Fc portion [compound 56662]
- Kd [1]: 0.0053 µM
- Kd nrgEGF [2]: No binding
- binding to EGF (EGF): did not bind
- In vitro inhibition of proliferation, HGF (hep3B cells; HGF-induced): yes (hep3B, HUVEC)
- EC50 (hep3B cells; FIG. 11C, read-out: ECK for FBS-induced proliferation): 0.201 µM
- In vitro inhibition of proliferation, HGF (HUVEC cells): yes (hep3B, HUVEC)
- inhibition of proliferation stimulated by VEGF (VEGF): no
- inhibition of proliferation stimulated by PIGF (PIGF): no
